In publication PMC5780203:

How the values were obtained:
[1] = biological target: PHD finger of human BPTF protein (human); test: ITC
chromodomain of CBX5 = test: ITC

Substance	fold weaker Kd than the native H3K4me3 peptide [1] [fold]	fold tighter binding than the H3KC9me3 peptide (chromodomain of CBX5) [fold]
H3KC4me3 peptide MLA (methyllysine analog of H3K4me3)	13	–
trimethylated H3 lysine 9 peptide	–	6
